# Laboratory results from patent US20200317768A1 (published 2020).
# T1: human FcγRIIaR extracellular domain, C-terminal His-tag (human, UniProt P12318 34-217)
# T1 construct: also called human FcγRIIa (type R); FcgRIIaR; not shown: His-tag added to C-terminus
# T1 chain: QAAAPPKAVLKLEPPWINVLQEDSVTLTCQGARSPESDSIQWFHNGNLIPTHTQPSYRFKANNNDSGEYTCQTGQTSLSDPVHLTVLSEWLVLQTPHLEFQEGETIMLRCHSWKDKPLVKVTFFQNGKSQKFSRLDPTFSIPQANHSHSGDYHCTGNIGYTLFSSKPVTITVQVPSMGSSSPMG
# B1: MS_M103205H795-SG1/M103202L889-SK1 (antibody, human IgG1, kappa)
# heavy: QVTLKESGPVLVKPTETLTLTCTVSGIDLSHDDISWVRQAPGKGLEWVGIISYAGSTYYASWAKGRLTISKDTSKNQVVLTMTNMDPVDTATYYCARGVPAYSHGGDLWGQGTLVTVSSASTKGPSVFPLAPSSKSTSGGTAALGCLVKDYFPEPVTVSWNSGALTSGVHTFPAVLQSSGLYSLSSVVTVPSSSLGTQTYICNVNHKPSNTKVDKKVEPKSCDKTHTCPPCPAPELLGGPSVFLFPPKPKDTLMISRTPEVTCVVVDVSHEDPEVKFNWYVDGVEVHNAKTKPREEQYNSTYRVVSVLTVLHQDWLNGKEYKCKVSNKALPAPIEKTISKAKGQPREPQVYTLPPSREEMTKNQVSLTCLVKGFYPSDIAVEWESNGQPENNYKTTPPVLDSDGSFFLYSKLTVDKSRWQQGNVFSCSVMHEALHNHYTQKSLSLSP
# light: DIVMTQSPATLSLSPGERATLSCTSSQSVYHANWLSWFQQKPGQPPKLLIYWASTLAYGVPSRFSGSGSGTDFTLTISSLQPEDAATYYCAGGYGGGRYAFGQGTKVEIKRTVAAPSVFIFPPSDEQLKSGTASVVCLLNNFYPREAKVQWKVDNALQSGNSQESVTEQDSKDSTYSLSSTLTLSKADYEKHKVYACEVTHQGLSSPVTKSFNRGEC
# notes: Parent antibody with SG1 human heavy chain constant region; also called MS1032LO06-SG1
# Target: T1, human FcγRIIaR extracellular domain, …
# Experiment: SPR (BIACORE); KD of parent SG1 / KD of variant
binder,measurement,value
B1,KD fold (SG1 = 1),1 fold
